“And” between values parts separate entries of the source, which are not always exact repeats. Equal values may be shown once.
Columns and labels:
[1] = target: F protein (RSV F glycoprotein immobilised on the BIAcore sensor chip) (respiratory syncytial virus (RSV), UniProt P03420 26-524); test: BIAcore, immobilised F protein
[2] = target: Bac-F (UniProt P03420 26-524); test: BIAcore, Mab vs Bac-F, 1:1
[3] = target: T1, F protein of wild type RSV A/Long (respiratory syncytial virus, strain …, UniProt P12568 26-574); test: cell-based or functional assay
T1 sequence (P12568 26-574): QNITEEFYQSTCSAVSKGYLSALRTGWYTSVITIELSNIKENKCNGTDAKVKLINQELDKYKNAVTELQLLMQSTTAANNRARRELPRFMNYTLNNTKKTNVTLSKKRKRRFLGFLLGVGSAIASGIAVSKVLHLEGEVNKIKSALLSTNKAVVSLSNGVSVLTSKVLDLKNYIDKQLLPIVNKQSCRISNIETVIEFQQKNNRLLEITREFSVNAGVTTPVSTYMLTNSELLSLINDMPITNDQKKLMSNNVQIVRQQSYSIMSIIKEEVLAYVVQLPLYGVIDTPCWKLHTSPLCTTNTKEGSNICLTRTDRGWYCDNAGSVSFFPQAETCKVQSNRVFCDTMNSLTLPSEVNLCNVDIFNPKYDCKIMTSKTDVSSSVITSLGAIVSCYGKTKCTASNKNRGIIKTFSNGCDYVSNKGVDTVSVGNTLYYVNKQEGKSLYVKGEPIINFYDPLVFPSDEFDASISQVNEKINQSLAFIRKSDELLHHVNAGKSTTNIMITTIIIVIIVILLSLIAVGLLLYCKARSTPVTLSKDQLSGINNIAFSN

[4] = target: T1, F protein of wild type RSV A/Long; test: cell-based or functional assay; remark: listed apart in the source

Chain of F protein (RSV F glycoprotein immobilised on the BIAcore sensor chip) (P03420 26-524): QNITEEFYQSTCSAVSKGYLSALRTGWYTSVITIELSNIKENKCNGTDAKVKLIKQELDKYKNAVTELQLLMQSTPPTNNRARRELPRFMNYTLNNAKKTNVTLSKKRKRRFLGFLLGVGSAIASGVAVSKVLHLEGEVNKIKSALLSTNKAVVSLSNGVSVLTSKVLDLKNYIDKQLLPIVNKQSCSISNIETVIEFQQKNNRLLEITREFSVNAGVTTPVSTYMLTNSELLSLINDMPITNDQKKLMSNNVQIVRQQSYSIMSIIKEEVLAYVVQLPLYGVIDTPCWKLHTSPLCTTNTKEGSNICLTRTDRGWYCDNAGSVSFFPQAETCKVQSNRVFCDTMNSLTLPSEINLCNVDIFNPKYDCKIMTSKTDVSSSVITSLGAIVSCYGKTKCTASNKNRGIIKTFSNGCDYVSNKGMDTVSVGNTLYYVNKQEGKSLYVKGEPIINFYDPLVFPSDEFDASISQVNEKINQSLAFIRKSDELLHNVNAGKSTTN
Chain of Bac-F (P03420 26-524): as above

B1: 1X-493L1FR (Fab) (Fab, V domains shown)
VH: QVTLRESGPALVKPTQTLTLTCTFSGFSLSTSGMSVGWIRQPPGKALEWLADIWWDDKKDYNPSLKSRLTISKDTSKNQVVLKVTNMDPADTATYYCARSMITNWYFDVWGAGTTVTVSS
VL: DIQMTQSPSTLSASVGDRVTITCSASSSVGYMHWYQQKPGKAPKLLIYDTSKLASGVPSRFSGSGSGTEFTLTISSLQPDDFATYYCFQGSGYPFTFGGGTKLEIK
Binder B1 has a koff [1] of 0.00065 s⁻¹ and a kon [1] of 185000 M⁻¹ s⁻¹.

B2: A1e9 (monoclonal antibody) (antibody, V domains shown)
VH: QVTLRESGPALVKPTQTLTLTCTFSGFSLSTAGMSVGWIRQPPGKALEWLADIWWDGKKHYNPSLKDRLTISKDTSKNQVVLKVTNMDPADTATYYCARDMIFNWYFDVWGQGTTVTVSS
VL: DIQMTQSPSTLSASVGDRVTITCSLSSRVGYMHWYQQKPGKAPKLLIYDTFKLSSGVPSRFSGSGSGTEFTLTISSLQPDDFATYYCFQGSGYPFTFGGGTKVEIK
Work on B2 yielded a Kd [2] of 0.33 nM, a koff [2] of 0.000143 s⁻¹ and a kon [2] of 433000 M⁻¹ s⁻¹. For the same binder, the “number in parentheses after KD (fold vs SYNAGIS)” value (shortened to “number … (fold vs SYNAGIS)”) [2] was 12 fold.

B3: A13a11 (Fab) (Fab, V domains shown)
VH: QVTLRESGPALVKPTQTLTLTCTFSGFSLSTAGMSVGWIRQPPGKALEWLADIWWDDKKHYNPSLKDRLTISKDTSKNQVVLKVTNMDPADTATYYCARDMIFNWYFDVWGAGTTVTVSS
VL: DIQMTQSPSTLSASVGDRVTITCSPSSRVGYMHWYQQKPGKAPKLLIYDTYRHSSGVPSRFSGSGSGTEFTLTISSLQPDDFATYYCFQGSGYPFTFGGGTKLEIK
B3 showed a koff [1] of 0.00025 s⁻¹ and a kon [1] of 735000 M⁻¹ s⁻¹.

B4: P12f2 (Fab) (Fab, V domains shown)
VH: QVTLRESGPALVKPTQTLTLTCTFSGFSLSTPGMSVGWIRQPPGKALEWLADIWWDDKKHYNPSLKDRLTISKDTSKNQVVLKVTNMDPADTATYYCARDMIFNFYFDVWGAGTTVTVSS
VL: DIQMTQSPSTLSASVGDRVTITCSLSSRVGYMHWYQQKPGKAPKLLIYDTFYLSSGVPSRFSGSGSGTEFTLTISSLQPDDFATYYCFQGSGYPFTFGGGTKVEIK
notes: also called Pf12; P1212
In the case of B4, the “EC50, RSV (Long) microneutralization” value [3] is reported as 0.65 nM, the koff [1] is reported as 0.000282 s⁻¹ and the kon [1] is reported as 663000 M⁻¹ s⁻¹. For the same binder, the “Fold Difference (Control IC50)” value [4] was 16 fold, the “Fold Difference (Curve IC50)” value [4] was 11 fold and the “Mean IC50 (Control), RSV microneutralization” value (“Mean IC50 (Control)” below) [4] was 0.0326 µg/mL. For the same binder, the “Mean IC50 (Curve), RSV microneutralization” value (shortened to “Mean IC50 (Curve)”) [4] was 0.0407 µg/mL.

B5: AFFF (monoclonal antibody) (antibody, V domains shown)
VH: QVTLRESGPALVKPTQTLTLTCTFSGFSLSTAGMSVGWIRQPPGKALEWLADIWWDDKKDYNPSLKSRLTISKDTSKNQVVLKVTNMDPADTATYYCARSMITNFYFDVWGAGTTVTVSS
VL: DIQMTQSPSTLSASVGDRVTITCSASSSVGYMHWYQQKPGKAPKLLIYDTFKLASGVPSRFSGSGSGTEFTLTISSLQPDDFATYYCFQFSGYPFTFGGGTKLEIK
For B5, the koff [1] was 0.000274 s⁻¹ and 0.000266 s⁻¹ and 0.000206 s⁻¹ and the kon [1] was 108000 M⁻¹ s⁻¹ and 96000 M⁻¹ s⁻¹ and 124000 M⁻¹ s⁻¹.

B6: A12a6 (monoclonal antibody) (antibody, V domains shown)
VH: QVTLRESGPALVKPTQTLTLTCTFSGFSLSTAGMSVGWIRQPPGKALEWLADIWWDGKKDYNPSLKDRLTISKDTSKNQVVLKVTNMDPADTATYYCARDMIFNFYFDVWGQGTTVTVSS
VL: DIQMTQSPSTLSASVGDRVTITCSASSRVGYMHWYQQKPGKAPKLLIYDTFKLSSGVPSRFSGSGSGTEFTLTISSLQPDDFATYYCFQGSGYPFTFGGGTKVEIK
With B6 the “Fold Difference (Control IC50)” value [4] was 15 fold, the “Fold Difference (Curve IC50)” value [4] was 13 fold and the “Mean IC50 (Control)” value [4] was 0.0354 µg/mL. For the same binder, the “Mean IC50 (Curve)” value [4] was 0.0357 µg/mL, the Kd [2] was 0.04 nM and the koff [2] was 1.65e-05 s⁻¹. For the same binder, the kon [2] was 460000 M⁻¹ s⁻¹ and the “number … (fold vs SYNAGIS)” value [2] was 98 fold.

B7: Y10H6 (Fab) (Fab, V domains shown)
VH: QVTLRESGPALVKPTQTLTLTCTFSGFSLSTAGMSVGWIRQPPGKALEWLADIWWDDKKDYNPSLKSRLTISKDTSKNQVVLKVTNMDPADTATYYCARDMIFNWYFDVWGAGTTVTVSS
VL: DIQMTQSPSTLSASVGDRVTITCSASSSVGYMHWYQQKPGKAPKLLIYDTRYLSSGVPSRFSGSGSGTEFTLTISSLQPDDFATYYCFQGSGYPFTFGGGTKLEIK
Binder B7 has a koff [1] of 0.000462 s⁻¹ and a kon [1] of 757000 M⁻¹ s⁻¹.

B8: DG (Fab) (Fab, V domains shown)
VH: QVTLRESGPALVKPTQTLTLTCTFSGFSLSTAGMSVGWIRQPPGKALEWLADIWWDDKKDYNPSLKSRLTISKDTSKNQVVLKVTNMDPADTATYYCARDMITNFYFDVWGAGTTVTVSS
VL: DIQMTQSPSTLSASVGDRVTITCSASSSVGYMHWYQQKPGKAPKLLIYDTFKLASGVPSRFSGSGSGTEFTLTISSLQPDDFATYYCFQGSGYPFTFGGGTKLEIK
In the case of B8, the koff [1] is reported as 0.000167 s⁻¹ and 0.000444 s⁻¹.

B9: P12f4 (monoclonal antibody) (antibody, V domains shown)
VH: QVTLRESGPALVKPTQTLTLTCTFSGFSLSTPGMSVGWIRQPPGKALEWLADIWWDGKKHYNPSLKDRLTISKDTSKNQVVLKVTNMDPADTATYYCARDMIFNFYFDVWGQGTTVTVSS
VL: DIQMTQSPSTLSASVGDRVTITCSLSSRVGYMHWYQQKPGKAPKLLIYDTRGLPSGVPSRFSGSGSGTEFTLTISSLQPDDFATYYCFQGSGYPFTFGGGTKVEIK
With B9 the “Fold Difference (Control IC50)” value [4] was 23 fold, the “Fold Difference (Curve IC50)” value [4] was 19 fold and the “Mean IC50 (Control)” value [4] was 0.0235 µg/mL. For the same binder, the “Mean IC50 (Curve)” value [4] was 0.0242 µg/mL, the Kd [2] was 0.11 nM and the koff [2] was 5.55e-05 s⁻¹. For the same binder, the kon [2] was 495000 M⁻¹ s⁻¹ and the “number … (fold vs SYNAGIS)” value [2] was 35 fold.

B10: A13c4 (monoclonal antibody) (antibody, V domains shown)
VH: QVTLRESGPALVKPTQTLTLTCTFSGFSLSTAGMSVGWIRQPPGKALEWLADIWWDGKKSYNPSLKDRLTISKDTSKNQVVLKVTNMDPADTATYYCARDMIFNFYFDVWGQGTTVTVSS
VL: DIQMTQSPSTLSASVGDRVTITCSLSSRVGYMHWYQQKPGKAPKLLIYDTMYQSSGVPSRFSGSGSGTEFTLTISSLQPDDFATYYCFQGSGYPFTFGGGTKVEIK
B10 was tested, and the “Fold Difference (Control IC50)” value [4] was 14 fold, the “Fold Difference (Curve IC50)” value [4] was 12 fold and the “Mean IC50 (Control)” value [4] was 0.0375 µg/mL. The “Mean IC50 (Curve)” value [4] was 0.0376 µg/mL, the Kd [2] was 0.13 nM and the koff [2] was 3.96e-05 s⁻¹. The kon [2] was 300000 M⁻¹ s⁻¹ and the “number … (fold vs SYNAGIS)” value [2] was 30 fold.

B11: M3H9 (Fab) (Fab, V domains shown)
VH: QVTLRESGPALVKPTQTLTLTCTFSGFSLSTAGMSVGWIRQPPGKALEWLADIWWDDKKDYNPSLKSRLTISKDTSKNQVVLKVTNMDPADTATYYCARDMIFNWYFDVWGAGTTVTVSS
VL: DIQMTQSPSTLSASVGDRVTITCSASSSVGYMHWYQQKPGKAPKLLIYDTYKQTSGVPSRFSGSGSGTEFTLTISSLQPDDFATYYCFQGSGYPFTFGGGTKLEIK
Work on B11 yielded a koff [1] of 0.000338 s⁻¹ and a kon [1] of 605000 M⁻¹ s⁻¹.

B12: H3-3F4 (Fab) (Fab, V domains shown)
VH: QVTLRESGPALVKPTQTLTLTCTFSGFSLSTAGMSVGWIRQPPGKALEWLADIWWDDKKDYNPSLKSRLTISKDTSKNQVVLKVTNMDPADTATYYCARDMIFNWYFDVWGAGTTVTVSS
VL: DIQMTQSPSTLSASVGDRVTITCSASSSVGYMHWYQQKPGKAPKLLIYDTFKLASGVPSRFSGSGSGTEFTLTISSLQPDDFATYYCFQGSGYPFTFGGGTKLEIK
notes: also called 113-3F4
For B12, the koff [1] was 0.000445 s⁻¹ and 0.000402 s⁻¹.

B13: P11d4 (monoclonal antibody) (antibody, V domains shown)
VH: QVTLRESGPALVKPTQTLTLTCTFSGFSLSTPGMSVGWIRQPPGKALEWLADIWWDGKKHYNPSLKDRLTISKDTSKNQVVLKVTNMDPADTATYYCARDMIFNWYFDVWGQGTTVTVSS
VL: DIQMTQSPSTLSASVGDRVTITCSPSSRVGYMHWYQQKPGKAPKLLIYDTMRLASGVPSRFSGSGSGTEFTLTISSLQPDDFATYYCFQGSGYPFTFGGGTKVEIK
In the case of B13, the “Fold Difference (Control IC50)” value [4] is reported as 19 fold, the “Fold Difference (Curve IC50)” value [4] is reported as 21 fold and the “Mean IC50 (Control)” value [4] is reported as 0.0289 µg/mL. For the same binder, the “Mean IC50 (Curve)” value [4] was 0.0217 µg/mL, the Kd [2] was 0.62 nM and the koff [2] was 0.000289 s⁻¹. For the same binder, the kon [2] was 466000 M⁻¹ s⁻¹ and the “number … (fold vs SYNAGIS)” value [2] was 6 fold.

B14: P12f2 (monoclonal antibody) (antibody, V domains shown)
VH: QVTLRESGPALVKPTQTLTLTCTFSGFSLSTPGMSVGWIRQPPGKALEWLADIWWDDKKHYNPSLKDRLTISKDTSKNQVVLKVTNMDPADTATYYCARDMIFNFYFDVWGAGTTVTVSS
VL: DIQMTQSPSTLSASVGDRVTITCSLSSRVGYMHWYQQKPGKAPKLLIYDTFYLSSGVPSRFSGSGSGTEFTLTISSLQPDDFATYYCFQGSGYPFTFGGGTKVEIK
notes: also called Pf12; P1212
In the case of B14, the “Fold Difference (Control IC50)” value [4] is reported as 24 fold, the “Fold Difference (Curve IC50)” value [4] is reported as 20 fold and the “Mean IC50 (Control)” value [4] is reported as 0.0223 µg/mL. The “Mean IC50 (Curve)” value [4] was 0.0231 µg/mL, the Kd [2] was 0.31 nM and the koff [2] was 0.000128 s⁻¹. For the same binder, the kon [2] was 407000 M⁻¹ s⁻¹ and the “number … (fold vs SYNAGIS)” value [2] was 13 fold.

B15: L1-7E5 (Fab) (Fab, V domains shown)
VH: QVTLRESGPALVKPTQTLTLTCTFSGFSLSTAGMSVGWIRQPPGKALEWLADIWWDDKKDYNPSLKSRLTISKDTSKNQVVLKVTNMDPADTATYYCARDMITNFYFDVWGAGTTVTVSS
VL: DIQMTQSPSTLSASVGDRVTITCSASSRVGYMHWYQQKPGKAPKLLIYDTFKLASGVPSRFSGSGSGTEFTLTISSLQPDDFATYYCFQGSGYPFTFGGGTKLEIK
B15 was tested, and the koff [1] was 0.000192 s⁻¹ and 0.000331 s⁻¹ and 0.000229 s⁻¹.

B16: 6H8 (Fab) (Fab, V domains shown)
VH: QVTLRESGPALVKPTQTLTLTCTFSGFSLSTAGMSVGWIRQPPGKALEWLADIWWDDKKDYNPSLKSRLTISKDTSKNQVVLKVTNMDPADTATYYCARDMITNFYFDVWGAGTTVTVSS
VL: DIQMTQSPSTLSASVGDRVTITCSASSSVGYMHWYQQKPGKAPKLLIYDTFKLTSGVPSRFSGSGSGTEFTLTISSLQPDDFATYYCFQGSGYPFTFGGGTKLEIK
For B16, the koff [1] was 0.000178 s⁻¹ and 0.000473 s⁻¹ and the kon [1] was 314000 M⁻¹ s⁻¹ and 444000 M⁻¹ s⁻¹.

B17: A8c7 (monoclonal antibody) (antibody, V domains shown)
VH: QVTLRESGPALVKPTQTLTLTCTFSGFSLSTAGMSVGWIRQPPGKALEWLADIWWDDKKSYNPSLKDRLTISKDTSKNQVVLKVTNMDPADTATYYCARDMIFNWYFDVWGQGTTVTVSS
VL: DIQMTQSPSTLSASVGDRVTITCSPSSRVGYMHWYQQKPGKAPKLLIYDTRYQSSGVPSRFSGSGSGTEFTLTISSLQPDDFATYYCFQGSGYPFTFGGGTKLEIK
B17 showed a Kd [2] of 0.21 nM, a koff [2] of 8.75e-05 s⁻¹ and a kon [2] of 417000 M⁻¹ s⁻¹. The “number … (fold vs SYNAGIS)” value [2] was 19 fold.

— patent US20020177126A1 (published 2002)
